# Test: yeast display, Sf9 membrane polyspecificity reagent, FACS + sequencing; frameworks hold sequencing errors
# In short: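 After 36–48 hours of galactose induction, yeast (Saccharomyces cerevisiae BJ5465) displaying a synthetic nanobody library were stained at 4 °C for 1 hour with 10% biotinylated, detergent-solubilized Sf9 membrane reagent. Streptavidin microbeads enriched the stained cells before FACS sorting into low and high (top ~1%) gates on anti-HA and streptavidin fluorescence. Each clone's polyreactivity label reflects its gate of origin.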
row,Sequence,polyreactivity (PSR sort gate)
1,QVQLEESGGGLVQAGGSLRLSCAASGSTLNYYAMGWYRQAPGKERELVAAITWSGGSTSYADSVKGRFTISRDKAKNTVYLQMNSLKQEDTAVYYCATDFPTVQLYDTDWLSSDMGYWGQGTQVTVSS,low polyreactivity
2,QVQLEESGGGLVQAGGSLRLSCAASGSTSLKNAMGWYRQAPGKERELVAAISSGGSTYYADSVKGRFTISRDNAKNTVYLQINSLKPEDTAVYYCAAKYLRGLGYWGQGTQVTVSS,high polyreactivity
3,QVQLEESGGGLVQAGGSLRLSCAASVSTFRLYVMGGYRQAPGKERQLVAAIDWSGGSTYYADSVKGRFTISRDNAKNTVYLQMNSLKPEDTAVYYCAADYSVASPDGPDVIYDYWGQGTQVTVSS,low polyreactivity
4,QVQLEESGGGLVQAGGSLRLSCAATGFIFRGYAMGWYRPAPGKERELVAAITSSGGDTYYADSVKGRFTISRDNAKNTVYLQMNSLKPEDTAVYYCNARDYASGTEGDYWGQGTQVTVSS,low polyreactivity
5,QVQLEESGGGLVQAGGSLRLSCAATGSTFGYAMGWYSQATGKEGEWVAALTSTGGSTYYADSLKGRFTISRDKAKNTVDLQMNSLKPYDTAVYYCAADAYWIRSRFLYRIRYNYWGQGTQVTVSS,high polyreactivity
6,QVQLEESGGGLVQAGGSLRLSCAATGSTIPYYAMGWYRQAPGKERELVARITSGDRTFYADSVKGRFTISRDNAKNTVYLQMNSLKPEDTAVYFCNAQVHYYSWYGYWGQGTQVTVSS,high polyreactivity
7,QVQLEESGGGLVQAGGSLRLSCAAYGFTIVGNTMGWYRQAPGKERELVASINTNGGSTYYADSVKGRFTISRDNAKNTVYLQMNSLKPEDTAVYYCNARSWYPYDYWGQGTQVTVSS,low polyreactivity
8,QVQLEESGGGLVQAGGSLRLSCAAYGSTFSYAMGWYRQAPGKERELVAAITIGGRTSYADSVKGRFTISRDNAKNTVYLQMSSLKPEDTAVYYCAADDLPGMDYWGQGTQVTVSS,low polyreactivity
9,QVQLEESGGGLVQAGGSLRLSSAASGRIFRAYAMGRYRQAPGKERELVAAITSGGGSTYYADSVKGRFTISRHNAKNTVYLQMNSLKPEDTAVYYSAAKSSRIAYSSWFYYATFDYWGQGTQVTVSS,high polyreactivity
10,QVQLEESGGGLVQAGGSLRLSWAASGSTFQSYAMGWYRQAPGKERELVAVIDSGGRTYYADSVKGRFTISRDNAKNTVYLQMNSLKPEDTAVYYCATVPGYSLYDLIVYWGQGTQVTVSS,high polyreactivity
11,QVQLEESGGGLVQSGGSLRLSCAASGSIFYGYTMGWYRQAPGKEMEFVAAITGSGGSTYFADSVKGRFTISRDNAKKTVYLQMNSLKPEDTSVYYCAARRYVNRRYDYWGQGTQVTVSS,high polyreactivity
12,QVQLEESGGRLVQAGGSLRLSCAASGSTFITNAMGWYRQAPGKERELVAAITYSTGGTYYADSVKGRFTISRDNAKNTVYLQMNSLKPEDTAVYYCAALLYFFLYDYWGHGTQVTVSS,low polyreactivity
13,QVQLEESGGSLVQAGGSLRLSCAASGRTFTVNDMGWYRQAPGKERELVADIRGSGVSTSYADSVKGRFTISRDNAKNTVYLQMNSLKPADTAVYYCATDPVKSGYQRYYYWGQGTHVTVSS,low polyreactivity
14,QVQLEESGRGLVQAGGSLRLSCAASGFTFRIYAMGWYRQAPGKGREFVAAITWSSGSTYYADSVKGRFTISRDNAKITVYLQMNSLKPEDTAVYYCAATYRFFPPRYYYWGQGTQVTVSS,high polyreactivity
15,QVQLEESGRGLVQAGGSLRLSCAASGRTFAYYAMGWYRQAPGKERELVAAITSGGSTNYADSVKGRFTISRDNAKNTVYLQMNSLKPEDTAVYYCNARFRWPWSTYDYWGQGTQVTVSS,high polyreactivity
16,QVQLEESGRGLVQAGGSLRLSCAASGSTFWSYAMGWYRQAPGKERELVATITRAGTTNYADSVKGRFTISRDNAKNTVYLQMNSLKPVDTAVFYCATRRPIYVRAYDYWGQGTQVTVSS,high polyreactivity
17,QVQLEESGRGLVQAGGSLRLSCAASGSTSGIYAMGWYRQAPGKERELVAAITWSGGSTNYADSVKGRFTISRDNAKNTVYLQMNSLKPVDTAVYYCAAEFYSYKYPDFDYWGQGTQVTVSS,low polyreactivity
18,QVQLEESGRGLVQAGGSLRLSCASSGIIFDGNAMGWYRQAAGKERELVAAITGGGSTDNADSVKGRFTISRDNGKYTVYLQMNSLKPEDTAVYYCAAVRSYYPGYYLGQGTQVTVSS,high polyreactivity
19,QVQLEESRGCLVQAGGSLRLSCAASGSIFYVYAMGWYRQAPGKERELVAAINTSGGSTYADSVMGRFTISRDNAKNTVYLQMNILIPEDNAFYYCAADGYYEYTWGEYDSWGQGTQVTVSS,low polyreactivity
20,QVQLEESRGGLVQAGGSLRLSCAASGFIIKHYAMGWYRQAPRKERELVAAISKRGGSTYYADSVKGRFTISRDNAKNTVYLQMNSLKPEDTAVYYCNAYLYVWHYPSGDEYDYWGQGTQVTVSS,high polyreactivity

# Reference: the nanobody polyreactivity screen of Harvey et al. (2022)
